# The supplement of paper PMC10065799, “High-throughput profiling of sequence recognition by tyrosine kinases and SH2 domains using bacterial peptide display” (eLife, 2023)
# Columns and labels:
# c-Src SH2 = assay: SH2 binding enrichment of the phosphorylated peptide, bacterial display (enrichment ratio); higher = better substrate or ligand; peptides without Tyr show the background
# Grb2 SH2 = Grb2 SH2 (UniProt P62993); assay: as above
# SHP2-C SH2 = assay: as above
# c-Abl (mouse) = assay: phosphorylation enrichment, bacterial display (enrichment ratio); higher = better substrate or ligand; peptides without Tyr show the background
# Fes = Fes (UniProt P07332); assay: as above
# c-Src = assay: as above
# Fer (mouse) = assay: as above
# AncSZ = assay: as above
# Fyn = Fyn (UniProt P06241); assay: as above
# EPHB1 = EPHB1 (UniProt P54762); assay: as above
# EPHB2 = EPHB2 (UniProt P29323); assay: as above
# FGFR3 = FGFR3 (UniProt P22607); assay: as above
# Jak2 = Jak2 (UniProt O60674); assay: as above
# FGFR1 = FGFR1 (UniProt P11362); assay: as above
# MERTK = MERTK (UniProt Q12866); assay: as above
# Hck = Hck (UniProt P08631); assay: as above
# 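For SH2 binding enrichment of the phosphorylated peptide, bacterial display in this document: peptide library displayed on the E. coli surface as eCPX fusions, selected cells deep-sequenced, score is each peptide's frequency after selection divided by its frequency in the input.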
# 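For phosphorylation enrichment, bacterial display in this document: 11-residue human phosphosite peptides and single-mutation variants displayed on the E. coli surface, counted by deep sequencing, each peptide's frequency after selection divided by its frequency in the unselected input library; frequency after pTyr selection over input frequency; kinase dosed for 20-30% of maximal phosphorylation in three min.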
# Chain of Grb2 SH2 (P62993 whole entry, looked up): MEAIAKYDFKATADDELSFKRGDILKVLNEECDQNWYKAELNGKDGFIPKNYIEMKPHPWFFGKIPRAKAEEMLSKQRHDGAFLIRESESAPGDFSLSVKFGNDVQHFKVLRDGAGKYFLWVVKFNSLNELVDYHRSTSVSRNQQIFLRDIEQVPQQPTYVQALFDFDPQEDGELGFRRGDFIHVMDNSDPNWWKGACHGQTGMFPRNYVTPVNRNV
# Chain of Hck (P08631 whole entry, looked up, the tested form may be a part): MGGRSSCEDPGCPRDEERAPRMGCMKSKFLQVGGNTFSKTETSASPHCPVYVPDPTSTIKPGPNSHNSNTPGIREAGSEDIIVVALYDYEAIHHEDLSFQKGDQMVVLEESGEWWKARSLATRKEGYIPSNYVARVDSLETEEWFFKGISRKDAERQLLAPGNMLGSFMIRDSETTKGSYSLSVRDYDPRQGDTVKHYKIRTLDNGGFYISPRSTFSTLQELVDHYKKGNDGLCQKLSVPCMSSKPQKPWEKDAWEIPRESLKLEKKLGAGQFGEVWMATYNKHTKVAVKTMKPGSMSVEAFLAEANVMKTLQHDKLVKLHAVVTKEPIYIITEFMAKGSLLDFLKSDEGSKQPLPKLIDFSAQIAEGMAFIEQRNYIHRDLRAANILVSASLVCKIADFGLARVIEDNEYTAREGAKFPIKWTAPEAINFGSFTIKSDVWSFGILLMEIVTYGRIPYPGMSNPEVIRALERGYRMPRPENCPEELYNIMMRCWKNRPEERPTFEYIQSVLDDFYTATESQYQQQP
# Chain of Jak2 (O60674 whole entry, looked up): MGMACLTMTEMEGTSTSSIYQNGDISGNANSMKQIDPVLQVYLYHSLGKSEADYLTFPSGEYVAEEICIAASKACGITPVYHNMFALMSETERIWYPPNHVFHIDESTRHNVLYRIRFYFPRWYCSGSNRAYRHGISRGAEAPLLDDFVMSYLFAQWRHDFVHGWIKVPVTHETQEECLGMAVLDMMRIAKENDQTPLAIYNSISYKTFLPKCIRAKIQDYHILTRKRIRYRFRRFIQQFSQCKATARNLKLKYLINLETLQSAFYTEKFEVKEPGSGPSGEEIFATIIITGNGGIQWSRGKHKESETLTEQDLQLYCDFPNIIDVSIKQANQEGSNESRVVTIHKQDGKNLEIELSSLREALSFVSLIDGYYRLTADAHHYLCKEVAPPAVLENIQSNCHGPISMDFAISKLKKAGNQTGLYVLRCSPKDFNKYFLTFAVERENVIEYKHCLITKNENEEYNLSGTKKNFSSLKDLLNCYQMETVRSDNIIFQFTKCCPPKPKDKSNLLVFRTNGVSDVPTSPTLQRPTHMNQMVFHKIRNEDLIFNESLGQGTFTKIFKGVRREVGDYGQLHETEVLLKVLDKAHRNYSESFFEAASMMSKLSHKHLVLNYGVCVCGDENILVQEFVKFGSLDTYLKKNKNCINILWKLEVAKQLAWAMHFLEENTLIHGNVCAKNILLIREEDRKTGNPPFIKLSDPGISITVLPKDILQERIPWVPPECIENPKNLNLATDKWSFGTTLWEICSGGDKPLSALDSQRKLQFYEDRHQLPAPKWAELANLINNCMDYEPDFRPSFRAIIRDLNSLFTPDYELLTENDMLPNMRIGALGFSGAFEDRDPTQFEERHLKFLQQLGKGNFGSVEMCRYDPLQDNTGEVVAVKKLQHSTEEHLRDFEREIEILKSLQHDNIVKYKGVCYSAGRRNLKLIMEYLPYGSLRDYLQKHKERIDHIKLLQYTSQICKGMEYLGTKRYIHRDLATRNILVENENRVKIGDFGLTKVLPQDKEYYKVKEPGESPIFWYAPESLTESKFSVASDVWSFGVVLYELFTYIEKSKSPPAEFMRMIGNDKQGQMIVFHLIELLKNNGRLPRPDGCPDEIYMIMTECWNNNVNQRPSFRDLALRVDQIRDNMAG
# Chain of EPHB2 (P29323 whole entry, looked up): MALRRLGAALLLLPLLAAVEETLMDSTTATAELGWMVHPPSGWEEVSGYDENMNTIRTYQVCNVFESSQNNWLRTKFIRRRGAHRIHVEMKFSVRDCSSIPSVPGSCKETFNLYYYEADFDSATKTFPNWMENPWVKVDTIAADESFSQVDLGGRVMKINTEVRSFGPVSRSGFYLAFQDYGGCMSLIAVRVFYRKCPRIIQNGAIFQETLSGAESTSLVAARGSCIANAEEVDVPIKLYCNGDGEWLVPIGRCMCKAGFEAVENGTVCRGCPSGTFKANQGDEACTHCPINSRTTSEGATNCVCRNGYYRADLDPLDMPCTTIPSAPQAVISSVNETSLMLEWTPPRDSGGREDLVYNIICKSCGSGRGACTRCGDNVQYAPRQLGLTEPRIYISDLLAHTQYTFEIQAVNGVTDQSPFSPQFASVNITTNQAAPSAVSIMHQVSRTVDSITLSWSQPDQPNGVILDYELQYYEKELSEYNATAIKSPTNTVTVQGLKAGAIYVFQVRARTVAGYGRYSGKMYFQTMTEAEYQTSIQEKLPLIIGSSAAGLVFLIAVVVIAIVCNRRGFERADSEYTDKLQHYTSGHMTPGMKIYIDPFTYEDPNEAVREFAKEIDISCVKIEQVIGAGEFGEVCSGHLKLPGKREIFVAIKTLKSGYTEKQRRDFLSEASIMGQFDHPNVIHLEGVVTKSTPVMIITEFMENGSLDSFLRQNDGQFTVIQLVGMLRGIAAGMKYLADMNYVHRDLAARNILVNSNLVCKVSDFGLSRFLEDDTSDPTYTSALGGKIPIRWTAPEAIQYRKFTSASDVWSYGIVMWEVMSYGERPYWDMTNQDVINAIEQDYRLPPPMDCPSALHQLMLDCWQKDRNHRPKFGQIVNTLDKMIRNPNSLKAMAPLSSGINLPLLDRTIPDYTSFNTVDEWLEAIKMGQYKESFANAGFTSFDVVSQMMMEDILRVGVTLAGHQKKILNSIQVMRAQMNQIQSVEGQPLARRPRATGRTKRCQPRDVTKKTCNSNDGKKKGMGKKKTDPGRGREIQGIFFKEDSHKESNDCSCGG
# Chain of FGFR1 (P11362 whole entry, looked up): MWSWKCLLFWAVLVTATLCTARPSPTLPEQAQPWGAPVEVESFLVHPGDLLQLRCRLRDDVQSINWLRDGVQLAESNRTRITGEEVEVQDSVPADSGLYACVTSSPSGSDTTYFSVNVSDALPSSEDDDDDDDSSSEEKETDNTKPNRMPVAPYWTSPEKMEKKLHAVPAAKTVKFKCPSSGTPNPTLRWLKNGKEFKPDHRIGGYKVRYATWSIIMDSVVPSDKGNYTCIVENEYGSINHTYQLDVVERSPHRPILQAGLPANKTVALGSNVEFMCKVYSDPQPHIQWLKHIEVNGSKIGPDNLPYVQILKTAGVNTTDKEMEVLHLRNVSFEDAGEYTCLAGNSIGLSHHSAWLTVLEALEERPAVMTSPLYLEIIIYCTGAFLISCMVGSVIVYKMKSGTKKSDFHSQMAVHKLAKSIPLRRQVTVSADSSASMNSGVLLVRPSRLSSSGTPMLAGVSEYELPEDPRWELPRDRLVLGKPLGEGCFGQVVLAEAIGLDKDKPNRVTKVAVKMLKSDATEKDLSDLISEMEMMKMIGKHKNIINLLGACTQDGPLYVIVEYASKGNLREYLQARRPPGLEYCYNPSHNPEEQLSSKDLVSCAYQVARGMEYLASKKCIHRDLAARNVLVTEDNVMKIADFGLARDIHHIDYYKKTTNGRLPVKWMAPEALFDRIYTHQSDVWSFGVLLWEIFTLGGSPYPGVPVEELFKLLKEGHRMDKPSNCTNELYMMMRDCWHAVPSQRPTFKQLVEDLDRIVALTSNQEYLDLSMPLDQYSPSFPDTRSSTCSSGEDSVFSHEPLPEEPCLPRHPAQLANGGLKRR
# Chain of Fyn (P06241 whole entry, looked up): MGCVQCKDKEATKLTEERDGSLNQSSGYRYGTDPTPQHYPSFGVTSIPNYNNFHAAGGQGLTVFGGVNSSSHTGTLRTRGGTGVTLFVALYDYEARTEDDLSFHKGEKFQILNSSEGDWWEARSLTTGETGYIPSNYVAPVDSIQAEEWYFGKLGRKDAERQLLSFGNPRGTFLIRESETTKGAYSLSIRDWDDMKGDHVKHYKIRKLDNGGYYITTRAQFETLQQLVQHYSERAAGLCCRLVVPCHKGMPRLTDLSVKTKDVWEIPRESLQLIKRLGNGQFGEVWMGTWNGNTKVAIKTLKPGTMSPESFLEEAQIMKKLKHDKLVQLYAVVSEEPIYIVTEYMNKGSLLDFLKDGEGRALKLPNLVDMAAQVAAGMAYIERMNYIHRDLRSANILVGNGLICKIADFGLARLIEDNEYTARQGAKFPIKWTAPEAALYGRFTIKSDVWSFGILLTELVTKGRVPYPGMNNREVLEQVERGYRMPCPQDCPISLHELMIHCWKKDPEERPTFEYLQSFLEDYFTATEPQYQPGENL
Sequence,SH2 binding enrichment (c-Src SH2),SH2 binding enrichment (Grb2 SH2),SH2 binding enrichment (SHP2-C SH2),phosphorylation enrichment (c-Abl (mouse)),phosphorylation enrichment (Fes),phosphorylation enrichment (c-Src),phosphorylation enrichment (Fer (mouse)),phosphorylation enrichment (AncSZ),phosphorylation enrichment (Fyn),phosphorylation enrichment (EPHB1),phosphorylation enrichment (EPHB2),phosphorylation enrichment (FGFR3),phosphorylation enrichment (Jak2),phosphorylation enrichment (FGFR1),phosphorylation enrichment (MERTK),phosphorylation enrichment (Hck)
GTPVMYTYDEY [COL10A1_Y623],2.67,0.954,0.843,0.68,1.09,2.42,0.575,1.26,1.76,0.708,0.978,0.893,1.04,0.743,0.804,1.01
GYEEAYSVFKK [PAFAH1B1_Y28],2.54,0.831,1.25,1.96,0.947,4.68,0.339,1.35,2.37,0.498,0.605,0.681,0.754,0.491,0.654,4.07
HAVFIYDICHV [TWNK_Y508_V507I_YF],0.619,1.34,0.793,1.89,1.56,2.49,4.14,1.19,3.92,3.04,3.98,0.956,1.26,0.54,3.24,2.59
HDKEFYSVHNK [MET_Y1235_Y1230H_YF],0.395,0.734,0.466,0.309,0.842,0.429,0.629,1.14,0.646,0.455,0.643,0.549,0.513,0.804,0.467,1.03
HEEDNYIEMIP [NWD2_Y566_L569M],0.467,0.553,0.747,1.86,2.85,1.16,0.938,3.02,0.67,1.68,1.19,3.82,2.39,3.93,1.13,0.822
HEVHIYEKSGA [ARPC1B_Y35],2.29,0.817,0.667,1.69,1.74,1.48,1.03,1.38,1.01,1.1,0.611,0.993,1.06,0.673,0.77,1.68
HFGCVYYGTLL [MET_Y1093_H1094Y],0.578,0.841,0.715,1.82,2.43,8.21,1.76,1.88,3.77,1.5,1.42,2.19,2.13,2.69,1.11,2.43
HFPFQCHRQLF [F12_Y53_Y53C_YF],0.951,1.23,1.01,1.09,1.64,0.692,0.587,1.76,0.535,0.875,0.758,1.4,1.1,0.745,0.885,1.07
HGDSAYHSQRH [ERBB3_Y1132_R1127H],0.508,0.996,0.896,1.32,1.22,0.824,0.276,1.2,0.327,0.63,0.479,0.425,1.03,0.808,0.789,0.648
HGEAVYSRDCV [XPC_Y676_R671H],0.586,1.18,0.716,0.66,0.819,3.78,0.664,0.697,3.49,0.473,0.51,0.687,0.786,0.621,0.89,2.75
HKGASYVFRLS [PTPRD_Y891],0.97,1.56,2.11,0.935,1.34,0.583,0.412,1,0.539,0.593,0.791,0.818,1.26,0.536,0.512,0.468
HKNNNYEPNLF [BRCA2_Y57],0.413,0.637,0.502,0.563,0.767,0.579,0.62,0.739,0.577,1.95,0.89,0.508,0.477,1.2,0.539,0.61
HLTLVYGGIFL [FBP1_Y259_R255L],0.544,0.808,0.883,1.4,1.81,2.71,0.699,1.61,2.72,0.743,0.849,1.15,1.96,0.745,0.507,2.09
HLVLNYGVCIC [JAK2_Y613_V617I],0.614,0.985,0.597,1.52,2.09,0.576,0.67,1.52,0.551,1.39,0.92,1.46,1.68,0.607,0.535,0.484
HLVSEYQQFQD [TUBB3_Y422_D417H_YF],0.544,0.869,0.75,0.559,0.974,0.728,0.338,1.07,0.577,0.819,0.916,0.54,0.917,0.741,0.336,0.524
HLWRIYYDITD [MMP27_Y307],0.941,0.869,1.01,1.86,3.16,4.21,1.64,3.29,2.6,9.72,4.96,3.87,3.36,4.63,1.77,3.14
